For this assay, the target named is T1, GPVIex (nonglycosylated human GPVI extracellular domain residues 1 to 183) (Homo sapiens).
T1 chain: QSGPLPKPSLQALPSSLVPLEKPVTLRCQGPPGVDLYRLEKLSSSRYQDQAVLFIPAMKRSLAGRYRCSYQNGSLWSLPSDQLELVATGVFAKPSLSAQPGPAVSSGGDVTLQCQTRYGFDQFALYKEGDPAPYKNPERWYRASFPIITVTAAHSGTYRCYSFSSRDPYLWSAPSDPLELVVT
Description: crystal structure.

B1: Glenzocimab (Fab, V domains shown)
VH: QVQLVQSGAEVKKPGASVKVSCKASGYTFTSYNMHWVRQAPGQGLEWMGGIYPGNGDTSYNQKFQGRVTMTRDTSTSTVYMELSSLRSEDTAVYYCARGTVVGDWYFDVWGQGTLVTVSS
VL: DIQMTQSPSSLSASVGDRVTITCRSSQSLENSNGNTYLNWYQQKPGKAPKLLIYRVSNRFSGVPSRFSGSGSGTDFTFTISSLQPEDIATYYCLQLTHVPWTFGQGTKVEIT
Regarding B1, the binding result is “binds”.

The record behind these values is paper PMC10119634 (Blood Advances, 2022).
